Common to all, as to test: FRET or BRET; CFP and YFP constructs transiently transfected into HEK cells; normalized net FRET analysed on the cell membrane; also after 12 h of 0.5 μM simvastatin, simvastatin with 20 ng/ml cholesterol, or 50 μM 2-BP
In general terms: BRET reads energy transfer from a luciferase to a nearby fluorophore.

Experiment [1] addresses T1, YFP-fused wild-type μ-opioid receptor (OPRM1) (rat), P33535.
T1 chain: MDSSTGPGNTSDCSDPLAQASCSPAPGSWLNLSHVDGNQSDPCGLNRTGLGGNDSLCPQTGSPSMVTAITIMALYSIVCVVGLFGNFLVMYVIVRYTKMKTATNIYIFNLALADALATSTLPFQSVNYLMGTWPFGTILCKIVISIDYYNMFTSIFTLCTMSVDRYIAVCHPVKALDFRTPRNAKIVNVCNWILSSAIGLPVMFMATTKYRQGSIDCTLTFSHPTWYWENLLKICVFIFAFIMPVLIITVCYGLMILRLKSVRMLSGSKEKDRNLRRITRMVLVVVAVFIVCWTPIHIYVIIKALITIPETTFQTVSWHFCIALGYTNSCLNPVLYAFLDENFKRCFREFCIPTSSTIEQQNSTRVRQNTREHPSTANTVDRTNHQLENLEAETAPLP
The settings on record: remark: other sources report otherwise.

Experiment [2] addresses T2, YFP-fused C170A mutant of μ-opioid receptor (OPRM1) (rat, UniProt P33535 1-398, C170A).
T2 construct: μ-opioid receptor (OPRM1) with C3.55(170) mutated to alanine; also called YFPC170A; source: HEK cells, transiently transfected, in cells; not shown: YFP, C-terminal, kept
The settings on record: partners not purified.

The target in experiment [3] is T3, YFP-fused wild-type μ-opioid receptor (OPRM1) (rat, UniProt P33535 1-398, palmitoylated at C3.55(170)).
T3 construct: μ-opioid receptor (OPRM1), wild type; also called YFPOPRM1; source: HEK cells, transiently transfected, in cells; not shown: YFP, C-terminal, kept
The following applies: partners not purified.

Where a chain is given by its changes, count along the chain named. Names and notes keep the numbering of the source.

B1: CFP-fused wild-type μ-opioid receptor (OPRM1), P33535 1-398 (receptor)
chain: T1 chain
modifications: here or on the partner: palmitoylated at C3.55(170); palmitoylated at C3.55(170)
B1: the normalized net FRET in experiment [1] came to 0.49.

B2: CFP-fused wild-type μ-opioid receptor (OPRM1) (receptor, rat, UniProt P33535 1-398, looked up)
chain: T1 chain
modifications: palmitoylated at C3.55(170)
notes: μ-opioid receptor (OPRM1), wild type; also called CFPOPRM1; source: HEK cells (also HEKOPRM1 and HEKC170A cells), transiently transfected, in living or fixed cells; not shown: CFP, C-terminal, kept
Turning to B2, the “normalized net FRET” value in experiment [2] stood at 0.3.

B3: CFP-fused C170A mutant of μ-opioid receptor (OPRM1) (receptor, rat, UniProt P33535 1-398, looked up)
chain: T1 chain with C170A
notes: μ-opioid receptor (OPRM1) with C3.55(170) mutated to alanine; also called CFPC170A; source: HEK cells (also HEKOPRM1 and HEKC170A cells), transiently transfected, in cells; not shown: CFP, C-terminal, kept
In the case of B3, the “normalized net FRET” value in experiment [2] was 0.07; in experiment [3] it was 0.27.

Source of the values: paper PMC3317874, “Palmitoylation and membrane cholesterol stabilize μ-opioid receptor homodimerization and G protein coupling” (BMC Cell Biology, 2012).
